These results are taken from US20250327081, “TDP-43-BINDING SINGLE-STRANDED APTAMERS AND USES THEREOF” (FONDAZIONE ISTITUTO ITALIANO DI TECNOLOGIA, published 2025).

Data set [1] deals with T1, TDP-43 construct (RRM1-2) (UniProt Q13148 Q13148:104-262). The experiment in a line: BLI; 10 mM K phosphate pH 7.2, 150 mM KCl, 0.01% Tween20, 25 C. As to conditions: label: 3'-biotin.
In data set [2] the target is T1, TDP-43 construct (RRM1-2). The data set is described as above. On the procedure: (§1) The binding assays were performed in 10 mM potassium phosphate buffer (pH 7.2) with 150 mM KCl and 0.01% Tween20. Streptavidin-coated biosensors were loaded with 1 μg/ml RNA aptamer modified with biotin on the 3′end and exposed to increasing protein concentrations varying from 20 nM to 20 μM, according to the strength of the binding. Kd values were estimated by fitting the response intensity (shift in the wavelength upon binding) as a function of the protein concentration, at the steady state. The assay was repeated at least 3 times, each time in triplicate. The reported binding curves are examples of the output of one experiment.
The inventors verified whether Apt-14 preserves the ability to bind tightly to TDP-43. Bio-layer interferometry was used to determine the dissociation constant of the interaction between Apt-14 and the TDP-43 construct. This experiment was carried out with the same buffer and the same conditions employed for the experiment carried out with Apt-1.

The target of data set [3] is T1, TDP-43 construct (RRM1-2). The experiment in a line: BLI; 10 mM K phosphate pH 7.2, 150 mM KCl, 0.01% Tween20, 25 C; about 90 nM in Example 7. As to conditions: label: 3'-biotin (BLI). On the procedure: In this study, the inventors calculated the predicted interaction propensities between the RNA aptamers of Table 1 and TDP-43 and validated the predicted interaction propensities by comparing them with the experimentally measured Kd (dissociation constant) values. To this end, the Kd between each of Apt-1, Apt-2, Apt-3, Apt-11, Apt-12 or Apt-13 and the two RNA recognition motifs of TDP-43 (RRM1-2) was determined by means of biolayer interferometry, a label-free technology to study biomolecular interactions. Importantly, RRM1-2 represents the minimal region necessary for RNA-binding with high affinity (Lukavsky et al., 2013) purifiable as a monomer under near-to-physiological conditions and in suitable quantities (Zacco et al., 2018).
as §1

Data set [4] concerns the target T1, TDP-43 construct (RRM1-2). In words: BLI. Background: In BLI a coated tip is dipped into the sample, and binding shifts an interference pattern.

T1 sequence (Q13148 104-262, one chain of several): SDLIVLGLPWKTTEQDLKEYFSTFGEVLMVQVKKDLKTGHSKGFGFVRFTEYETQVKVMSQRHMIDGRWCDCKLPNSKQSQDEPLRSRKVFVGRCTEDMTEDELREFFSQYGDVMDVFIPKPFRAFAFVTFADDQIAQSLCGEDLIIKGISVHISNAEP

Broadly, the Kd is the free concentration of one partner at which half of the binding sites on the other are occupied at equilibrium, for simple one-to-one binding. Low readings indicate higher affinity, high ones lower affinity. CGAGGCCGGG (ssRNA) [Apt-5] came in with a Kd in data set [1] of 1500 nM.

Take CGGTGTTGCT (ssDNA) [Apt-14 (DNA version of Apt-1)]: the Kd in data set [2] was approximately 76 nM.

In the case of CGGUGUUGCU (ssRNA) [Apt-1], in data set [3], the Kd came to 100 nM.

GGGGUGGGGC (ssRNA) [Apt-4] displayed a Kd in data set [1] of 1300 nM.

For the molecule GCUGGGGUGGGGCGGAUCGGUGUUG (ssRNA) [Apt-1 (25 nt)], the Kd in data set [4] is approximately 750 nM.

Turning to GCGGGGCCCG (ssRNA) [Apt-6], binding in data set [1] was put at a Kd of 1600 nM.

The molecule GUGGUCCCCG (ssRNA) [Apt-2] displayed a Kd in data set [1] of 750 nM.

CGCUGUGGUC (ssRNA) [Apt-3] returned an equilibrium dissociation constant (Kd) in data set [1] of 650 nM.
